Test results published in patent US20250092100A1.

Key:
[1] = target: HA-tagged Ran (UniProt P62826); experiment: co-immunoprecipitation in tsA-201 cells, HA antibody pull-down of HA-Ran, anti-FLAG Western blot quantified
[2] = target: GST-Ran (UniProt P62826); experiment: GST pull-down, GST-Ran bait, lysate of tsA201 cells with FLAG-MOG1 as prey, anti-FLAG Western blot quantified

reduction of binding to Ran compared with the wild-type MOG1 [1]: 92%
reduction of binding to Ran compared with the wild-type MOG1 [2]: 95%
Substance: E50K MOG1 mutant tagged with FLAG (from UniProt Q9HD47 1-186)
